{
  "source": "paper PMC7674646",
  "about": "“Structural and Functional Analyses of the Transcription Repressor DgoR From Escherichia coli Reveal a Divalent Metal-Containing D-Galactonate Binding Pocket” (Frontiers in Microbiology, 2020)",
  "assay_in_all_cases": "EMSA",
  "conditions_in_all_cases": "EMSA: 25 mM Tris-HCl pH 8.0, 50 mM KCl, 2.5 mM MgCl2, 5% glycerol, 1 mM DTT, 100 ug/mL salmon sperm DNA, 100 ng Cy5 probe in 20 ul, 25 C 20 min; native PAGE at …",
  "key": {"[1]": {"target": "T1, DgoR (EcoDgoR) WT (Escherichia coli) (UniProt P31460)", "T1 sequence": "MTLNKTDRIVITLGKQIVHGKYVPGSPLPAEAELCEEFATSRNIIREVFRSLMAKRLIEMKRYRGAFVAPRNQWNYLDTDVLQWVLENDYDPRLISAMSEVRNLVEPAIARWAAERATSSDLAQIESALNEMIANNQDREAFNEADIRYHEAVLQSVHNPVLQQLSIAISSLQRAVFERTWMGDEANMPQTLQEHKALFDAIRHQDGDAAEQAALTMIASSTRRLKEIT"}, "[2]": {"target": "T2, DgoR D146A D146A (Escherichia coli) (UniProt P31460)", "T2 sequence": "T1 sequence with D146A"}, "[3]": {"target": "T3, DgoR D184A D184A (Escherichia coli) (UniProt P31460)", "T3 sequence": "T1 sequence with D184A"}, "[4]": {"target": "T4, DgoR H150A H150A (Escherichia coli) (UniProt P31460)", "T4 sequence": "T1 sequence with H150A"}, "[5]": {"target": "T5, DgoR H195A H195A (Escherichia coli) (UniProt P31460)", "T5 sequence": "T1 sequence with H195A"}, "[6]": {"target": "T6, DgoR Q173A Q173A (Escherichia coli) (UniProt P31460)", "T6 sequence": "T1 sequence with Q173A"}, "[7]": {"target": "T7, DgoR R102A R102A (Escherichia coli) (UniProt P31460)", "T7 sequence": "T1 sequence with R102A"}, "[8]": {"target": "T8, DgoR R179A R179A (Escherichia coli) (UniProt P31460)", "T8 sequence": "T1 sequence with R179A"}, "[9]": {"target": "T9, DgoR R224A R224A (Escherichia coli) (UniProt P31460)", "T9 sequence": "T1 sequence with R224A"}, "[10]": {"target": "T10, DgoR R224E R224E (Escherichia coli) (UniProt P31460)", "T10 sequence": "T1 sequence with R224E"}, "[11]": {"target": "T11, DgoR S221A S221A (Escherichia coli) (UniProt P31460)", "T11 sequence": "T1 sequence with S221A"}, "[12]": {"target": "T12, DgoR T191A T191A (Escherichia coli) (UniProt P31460)", "T12 sequence": "T1 sequence with T191A"}, "[13]": {"target": "T13, DgoR W181A W181A (Escherichia coli) (UniProt P31460)", "T13 sequence": "T1 sequence with W181A"}},
  "note": "Numbering of substitutions follows the chain as printed.",
  "data": [
    {"sequence": "TGTAAAACGACGGCCAGTGCATTGTTCTTTTTGTGATCTAAATTGTAGTACAACAATATAAGTTTGTACTACATTACACGCACGGCAAACGCGAACGTCATCACGCTGGTACTACAAAGTTGCCGCGTTATGCATCGATCGGGGTAAAGTAGAGAAGAACATACAGAGCACAAGGACTCTCCATGACTCTCAATAAAACCGATCGCATTGTC (double strand) [dgo cis-acting element (promoter region)]", "values": [
      {"measurement": "binding", "setting": "[1]", "result": "binds"},
      {"measurement": "binding", "setting": "[2]", "result": "binds"},
      {"measurement": "binding", "setting": "[3]", "result": "binds more weakly"},
      {"measurement": "binding", "setting": "[4]", "result": "binds more weakly"},
      {"measurement": "binding", "setting": "[5]", "result": "binds more weakly"},
      {"measurement": "binding", "setting": "[6]", "result": "binds more weakly"},
      {"measurement": "binding", "setting": "[7]", "result": "binds more weakly"},
      {"measurement": "binding", "setting": "[8]", "result": "binds"},
      {"measurement": "binding", "setting": "[9]", "result": "binds more weakly"},
      {"measurement": "binding", "setting": "[10]", "result": "binds more weakly"},
      {"measurement": "binding", "setting": "[11]", "result": "binds"},
      {"measurement": "binding", "setting": "[12]", "result": "binds more weakly"},
      {"measurement": "binding", "setting": "[13]", "result": "binds"}
    ]}
  ]
}
